Source: PMC2191818

Molecular target: HLA-B*0702 class I heavy chain (free heavy chain, C1R transfectant B7C1R) (human)
Experiment: nonreducing SDS-PAGE of immunoprecipitates

- stoichiometry N: 2
Substance: HLA-B*0702 class I heavy chain (free heavy chain, C1R transfectant B7C1R) (natural protein)
